Reference: paper PMC3062166 (Molecular cell, 2011)

What was measured:
SBP-RNF20 (baculovirus) = SBP-RNF20 (baculovirus) (human, UniProt Q5VTR2 1-975); test: pull-down + SEC
SFB-RNF40 (baculovirus) = SFB-RNF40 (baculovirus) (human, UniProt O75150 1-1001); test: pull-down + SEC
Chain of SFB-RNF40 (baculovirus) (O75150 whole entry): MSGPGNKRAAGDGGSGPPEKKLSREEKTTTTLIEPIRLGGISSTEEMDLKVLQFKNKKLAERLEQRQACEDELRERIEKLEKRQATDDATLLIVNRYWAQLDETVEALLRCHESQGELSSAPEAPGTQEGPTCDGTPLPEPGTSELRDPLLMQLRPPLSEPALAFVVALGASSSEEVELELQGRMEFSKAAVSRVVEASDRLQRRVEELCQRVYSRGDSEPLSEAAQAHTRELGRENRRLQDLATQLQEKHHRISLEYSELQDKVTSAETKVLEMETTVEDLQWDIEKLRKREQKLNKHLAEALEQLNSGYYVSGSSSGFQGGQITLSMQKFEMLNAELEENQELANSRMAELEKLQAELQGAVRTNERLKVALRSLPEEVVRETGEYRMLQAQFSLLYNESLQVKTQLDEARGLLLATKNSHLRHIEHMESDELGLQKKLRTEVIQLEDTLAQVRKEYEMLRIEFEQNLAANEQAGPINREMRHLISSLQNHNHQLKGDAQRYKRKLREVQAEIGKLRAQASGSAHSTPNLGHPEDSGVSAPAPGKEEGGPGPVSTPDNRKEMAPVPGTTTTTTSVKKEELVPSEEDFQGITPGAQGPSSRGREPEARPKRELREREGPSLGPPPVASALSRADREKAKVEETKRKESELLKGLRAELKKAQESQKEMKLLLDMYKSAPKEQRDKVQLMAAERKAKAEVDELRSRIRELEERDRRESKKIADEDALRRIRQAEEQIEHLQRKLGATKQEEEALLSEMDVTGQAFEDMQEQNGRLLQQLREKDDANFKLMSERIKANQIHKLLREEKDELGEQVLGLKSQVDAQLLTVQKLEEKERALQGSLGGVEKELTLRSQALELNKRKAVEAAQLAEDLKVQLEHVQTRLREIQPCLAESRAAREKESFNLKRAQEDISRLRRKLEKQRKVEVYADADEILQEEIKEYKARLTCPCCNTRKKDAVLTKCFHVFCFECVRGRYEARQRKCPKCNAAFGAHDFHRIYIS

Chain of SBP-RNF20 (baculovirus) (Q5VTR2 whole entry): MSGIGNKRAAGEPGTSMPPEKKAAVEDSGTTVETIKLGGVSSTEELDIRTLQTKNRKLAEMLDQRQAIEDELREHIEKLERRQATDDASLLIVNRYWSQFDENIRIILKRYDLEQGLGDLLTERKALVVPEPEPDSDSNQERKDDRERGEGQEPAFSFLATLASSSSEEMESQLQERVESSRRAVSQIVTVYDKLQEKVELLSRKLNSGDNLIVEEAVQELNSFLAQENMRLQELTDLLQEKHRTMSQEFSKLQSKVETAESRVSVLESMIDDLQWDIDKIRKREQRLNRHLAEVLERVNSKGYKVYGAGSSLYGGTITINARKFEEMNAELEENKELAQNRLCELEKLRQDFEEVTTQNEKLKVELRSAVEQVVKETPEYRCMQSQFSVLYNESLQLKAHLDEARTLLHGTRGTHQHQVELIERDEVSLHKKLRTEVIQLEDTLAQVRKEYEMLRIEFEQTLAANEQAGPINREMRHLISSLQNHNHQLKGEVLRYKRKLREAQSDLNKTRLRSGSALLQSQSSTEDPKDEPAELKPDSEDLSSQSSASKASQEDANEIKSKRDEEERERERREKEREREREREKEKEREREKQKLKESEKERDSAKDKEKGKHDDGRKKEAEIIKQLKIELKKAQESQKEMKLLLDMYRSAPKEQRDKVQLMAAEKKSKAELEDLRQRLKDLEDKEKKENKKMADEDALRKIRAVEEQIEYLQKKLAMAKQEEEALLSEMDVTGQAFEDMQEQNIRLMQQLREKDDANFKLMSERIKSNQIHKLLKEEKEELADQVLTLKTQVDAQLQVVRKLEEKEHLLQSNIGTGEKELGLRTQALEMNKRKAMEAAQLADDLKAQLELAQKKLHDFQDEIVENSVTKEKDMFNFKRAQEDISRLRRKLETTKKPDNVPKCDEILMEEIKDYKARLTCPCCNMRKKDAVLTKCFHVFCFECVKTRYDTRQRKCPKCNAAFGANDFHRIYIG

B1: untagged WAC (baculovirus) (natural protein, UniProt Q9BTA9 1-647, looked up)
chain: MVMYARKQQRLSDGCHDRRGDSQPYQALKYSSKSHPSSGDHRHEKMRDAGDPSPPNKMLRRSDSPENKYSDSTGHSKAKNVHTHRVRERDGGTSYSPQENSHNHSALHSSNSHSSNPSNNPSKTSDAPYDSADDWSEHISSSGKKYYYNCRTEVSQWEKPKEWLEREQRQKEANKMAVNSFPKDRDYRREVMQATATSGFASGMEDKHSSDASSLLPQNILSQTSRHNDRDYRLPRAETHSSSTPVQHPIKPVVHPTATPSTVPSSPFTLQSDHQPKKSFDANGASTLSKLPTPTSSVPAQKTERKESTSGDKPVSHSCTTPSTSSASGLNPTSAPPTSASAVPVSPVPQSPIPPLLQDPNLLRQLLPALQATLQLNNSNVDISKINEVLTAAVTQASLQSIIHKFLTAGPSAFNITSLISQAAQLSTQAQPSNQSPMSLTSDASSPRSYVSPRISTPQTNTVPIKPLISTPPVSSQPKVSTPVVKQGPVSQSATQQPVTADKQQGHEPVSPRSLQRSSSQRSPSPGPNHTSNSSNASNATVVPQNSSARSTCSLTPALAAHFSENLIKHVQGWPADHAEKQASRLREEAHNMGTIHMSEICTELKNLRSLVRVCEIQATLREQRILFLRQQIKELEKLKNQNSFMV
stoichiometry N (SBP-RNF20 (baculovirus)): ~1 WAC per RNF20 (2:2)
stoichiometry N (SFB-RNF40 (baculovirus)): ~1 WAC per RNF40 (2:2)
